Patent US20180355338A1

Columns and labels:
[1] = target: TY-145 protease (mature, SEQ ID NO: 3) (Bacillus sp. TY-145); assay: Ki fitted from Suc-AAPF-pNA activity; Model B detergent; the reference itself (TY145 backbone)
[2] = target: TY-145 protease variant S27K, S171N, S173P, G174R, S175P, F180Y, L184W, Q198E, T297P (Bacillus sp. TY-145); assay: Ki fitted from Suc-AAPF-pNA activity; Model B detergent; ratio against m4 (without L184W)
[3] = target: TY-145 protease variant K146A, S173P, S175P, F180Y (Bacillus sp. TY-145); assay: Ki fitted from Suc-AAPF-pNA activity; Tris buffer pH 8; ratio against m3 (without K146A)
[4] = target: TY-145 protease variant S173P, S175P, N176Y, F180Y (Bacillus sp. TY-145); assay: Ki fitted from Suc-AAPF-pNA activity; Model B detergent; ratio against m3 (without N176Y)
[5] = target: TY-145 protease variant S27K, I150N, S171N, S173P, G174R, S175P, F180Y, Q198E, T297P (Bacillus sp. TY-145); assay: Ki fitted from Suc-AAPF-pNA activity; Model B detergent; ratio against m4 (without I150N)
[6] = target: TY-145 protease variant S27K, S171N, S173P, G174R, S175P, F180Y, L184Y, Q198E, T297P (Bacillus sp. TY-145); assay: Ki fitted from Suc-AAPF-pNA activity; Model B detergent; ratio against m4 (without L184Y)
[7] = target: TY-145 protease variant S173P, S175P, I178F, F180Y (Bacillus sp. TY-145); assay: Ki fitted from Suc-AAPF-pNA activity; Model B detergent; ratio against m3 (without I178F); second row of the same variant
[8] = target: TY-145 protease variant S27K, S173P, G174K, S175P, F180Y, L184F, Q198E, N199R, T297P (Bacillus sp. TY-145); assay: Ki fitted from Suc-AAPF-pNA activity; Model B detergent; ratio against m9 (without L184F)

Question: For “Z-Gly-Ala-NHCH(CH2C6H4pOH)C(OH)(SO3Na)-H, wherein Z is benzyloxycarbonyl (peptide)”, which IF (binding constant improvement factor, relative Ki) [1] is on record?
Answer: 1

Question: What about the relative Ki mutation [2] of the same substance?
Answer: 0.57

Question: And the relative Ki mutation [3]?
Answer: 0.29

Question: And the relative Ki mutation [4]?
Answer: 0.81

Question: What about the relative Ki mutation [5] of the same substance?
Answer: 0.24

Question: And the relative Ki mutation [6]?
Answer: 0.18

Question: And the relative Ki mutation [7]?
Answer: 0.49

Question: What about the relative Ki mutation [8] of the same substance?
Answer: 0.22
